B1: Septum site-determining protein minD homolog, chloroplastic (Arabidopsis thaliana (Mouse-ear cress)), Q9MBA2 (parent)
chain: MASLRLFSTNHQSLLLPSSLSQKTLISSPRFVNNPSRRSPIRSVLQFNRKPELAGETPRIVVITSGKGGVGKTTTTANVGLSLARYGFSVVAIDADLGLRNLDLLLGLENRVNYTCVEVINGDCRLDQALVRDKRWSNFELLCISKPRSKLPMGFGGKALEWLVDALKTRPEGSPDFIIIDCPAGIDAGFITAITPANEAVLVTTPDITALRDADRVTGLLECDGIRDIKMIVNRVRTDMIKGEDMMSVLDVQEMLGLSLLGVIPEDSEVIRSTNRGFPLVLNKPPTLAGLAFEQAAWRLVEQDSMKAVMVEEEPKKRGFFSFFGG
partner: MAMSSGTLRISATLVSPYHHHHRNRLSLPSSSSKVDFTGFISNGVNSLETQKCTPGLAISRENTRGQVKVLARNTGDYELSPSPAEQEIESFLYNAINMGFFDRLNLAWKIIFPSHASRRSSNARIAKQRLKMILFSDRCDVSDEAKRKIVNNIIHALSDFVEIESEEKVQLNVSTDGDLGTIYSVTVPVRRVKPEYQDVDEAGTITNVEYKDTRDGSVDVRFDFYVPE

Variants of: B1
Conditions: with mine1_arath MINE1, Q9C4Z7

Variant | effect of a mutation on the interaction
K72A | decreasing interaction

— IntAct's records for PubMed 16014621
